From the supplement of paper PMC10567573

B1: PTPN9 (parent)
chain: LKGAFPARLKKVLIVGAPIWFRVP
B2: TPD52L1 (parent)
chain: ISKKFGDMSYSIRHSISMPAMRNS

Variants of: B1
Assay: protein stability index of a GFP-peptide fusion (GPS, HEK-293T) (PSI 1-6); higher = more stable
Conditions: c terminus: a fixed tail appended
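Further: lentivirally expressed fusions sorted by FACS into six bins by GFP to DsRed ratio, PSI derived from sequencing read proportions per bin multiplied by bin number.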

Compared with K11G, K11H is higher in protein stability index: 1.84 for the first, 1.99 for the second.

First: K11I
Second: V12A
The protein stability index of the first is lower: 2.21 for the first, 3.43 for the second.

Compared with V12G, V12N is higher in protein stability index: 1.27 for the first, 3.54 for the second.

First: V12R
Second: V12T
The protein stability index of the first is lower: 2.3 for the first, 2.61 for the second.

First: L13D
Second: L13F
The protein stability index of the first is lower: 1.01 for the first, 2.82 for the second.

Going from L13I to L13N, the protein stability index falls from 3.11 to 1.7.

Going from L13P to I14A, the protein stability index rises from 2.55 to 4.13.

Going from I14D to I14E, the protein stability index falls from 1.46 to 1.09.

Going from I14L to I14N, the protein stability index falls from 2.73 to 1.37.

Compared with I14P, I14R is lower in protein stability index: 2.98 for the first, 2.87 for the second.

Going from V15D to V15F, the protein stability index rises from 2.44 to 2.48.

First: V15H
Second: V15K
The protein stability index of the first is higher: 2.46 for the first, 1.37 for the second.

Compared with V15Q, V15S is lower in protein stability index: 1.55 for the first, 1.37 for the second.

Compared with V15T, V15W is lower in protein stability index: 2.46 for the first, 1.27 for the second.

Compared with V15Y, G16F is lower in protein stability index: 2.25 for the first, 2.2 for the second.

First: G16I
Second: G16N
The protein stability index of the first is lower: 1.57 for the first, 2.29 for the second.

Going from G16P to G16R, the protein stability index falls from 5.02 to 3.43.

First: G16W
Second: A17F
The protein stability index of the first is lower: 1.74 for the first, 2.16 for the second.

Going from A17K to A17L, the protein stability index rises from 2.28 to 3.42.

First: A17N
Second: A17T
The protein stability index of the first is lower: 2.61 for the first, 4.8 for the second.

Going from P18C to P18G, the protein stability index rises from 2.33 to 4.24.

First: P18T
Second: P18W
The protein stability index of the first is lower: 1.99 for the first, 4.58 for the second.

First: I19E
Second: I19H
The protein stability index of the first is higher: 2.64 for the first, 1 for the second.

Going from I19S to I19T, the protein stability index rises from 1.95 to 4.11.

Going from W20E to W20F, the protein stability index falls from 3.74 to 2.45.

Compared with W20H, W20K is lower in protein stability index: 4.59 for the first, 2.56 for the second.

Going from W20S to F21L, the protein stability index falls from 2.41 to 1.57.

First: F21N
Second: F21R
The protein stability index of the first is higher: 2.65 for the first, 2.39 for the second.

Going from R22D to R22G, the protein stability index rises from 1.87 to 2.34.

Compared with R22H, R22L is higher in protein stability index: 2.47 for the first, 4.03 for the second.

Compared with R22P, V23D is lower in protein stability index: 3.02 for the first, 2.11 for the second.

Compared with V23P, P24D is higher in protein stability index: 2.07 for the first, 4.03 for the second.

Going from P24E to P24K, the protein stability index rises from 1.31 to 3.06.

P24L showed a protein stability index of 3.02.

Variants of: B2
Assay: as above
Conditions: c terminus: a fixed tail appended

First: I1A
Second: I1C
The protein stability index of the first is higher: 2.58 for the first, 2.26 for the second.

First: I1D
Second: I1E
The protein stability index of the first is higher: 3.33 for the first, 2.9 for the second.

First: I1F
Second: I1G
The protein stability index of the first is lower: 1.88 for the first, 2.65 for the second.

Compared with I1H, I1K is lower in protein stability index: 2.42 for the first, 2.17 for the second.

Going from I1L to I1M, the protein stability index rises from 2.23 to 2.33.

Going from I1N to I1P, the protein stability index rises from 2.87 to 2.89.

Going from I1Q to I1R, the protein stability index falls from 2.88 to 2.16.

Compared with I1S, I1T is lower in protein stability index: 3.16 for the first, 2.9 for the second.

Compared with I1V, I1W is lower in protein stability index: 3.17 for the first, 2.2 for the second.

Compared with I1Y, S2A is higher in protein stability index: 1.54 for the first, 2.41 for the second.

Going from S2C to S2D, the protein stability index rises from 1.82 to 2.94.

Compared with S2E, S2F is lower in protein stability index: 2.83 for the first, 1.74 for the second.

First: S2G
Second: S2H
The protein stability index of the first is higher: 2.88 for the first, 2.11 for the second.

First: S2I
Second: S2K
The protein stability index of the first is higher: 2.97 for the first, 2.74 for the second.

Going from S2L to S2M, the protein stability index falls from 2.97 to 1.75.

First: S2N
Second: S2P
The protein stability index of the first is lower: 2.37 for the first, 2.89 for the second.

First: S2Q
Second: S2R
The protein stability index of the first is lower: 2.37 for the first, 2.54 for the second.

First: S2T
Second: S2V
The protein stability index of the first is lower: 2.21 for the first, 2.34 for the second.

First: S2W
Second: S2Y
The protein stability index of the first is higher: 1.83 for the first, 1.74 for the second.

Going from K3A to K3C, the protein stability index rises from 1.57 to 2.69.

First: K3D
Second: K3E
The protein stability index of the first is lower: 2.34 for the first, 2.62 for the second.

First: K3F
Second: K3G
The protein stability index of the first is higher: 4.67 for the first, 2.25 for the second.

Going from K3H to K3I, the protein stability index rises from 2.37 to 3.53.

Going from K3L to K3M, the protein stability index falls from 2.83 to 2.67.

First: K3N
Second: K3P
The protein stability index of the first is lower: 2.5 for the first, 2.63 for the second.

Compared with K3Q, K3R is lower in protein stability index: 2.25 for the first, 2.16 for the second.

Compared with K3S, K3T is lower in protein stability index: 2.25 for the first, 2.19 for the second.

First: K3V
Second: K3W
The protein stability index of the first is higher: 4.4 for the first, 3.69 for the second.

First: K3Y
Second: K4A
The protein stability index of the first is higher: 2.8 for the first, 2.35 for the second.

Compared with K4C, K4D is higher in protein stability index: 2.36 for the first, 2.47 for the second.

First: K4E
Second: K4F
The protein stability index of the first is higher: 2.33 for the first, 1.58 for the second.

Going from K4G to K4H, the protein stability index rises from 2 to 2.57.

Compared with K4I, K4L is lower in protein stability index: 1.98 for the first, 1.52 for the second.

Going from K4M to K4N, the protein stability index rises from 2.1 to 2.13.

First: K4P
Second: K4Q
The protein stability index of the first is higher: 2.48 for the first, 2.09 for the second.

Compared with K4R, K4S is higher in protein stability index: 2.65 for the first, 2.71 for the second.

Compared with K4T, K4V is lower in protein stability index: 2.48 for the first, 2.01 for the second.

Going from K4W to K4Y, the protein stability index rises from 1.76 to 2.71.

Compared with F5A, F5C is lower in protein stability index: 2.97 for the first, 2.26 for the second.

Compared with F5D, F5E is higher in protein stability index: 2.46 for the first, 3.06 for the second.

Going from F5G to F5H, the protein stability index falls from 3.29 to 2.72.

Compared with F5I, F5K is higher in protein stability index: 2.37 for the first, 2.44 for the second.

Going from F5L to F5M, the protein stability index rises from 1.78 to 2.29.

Going from F5N to F5P, the protein stability index rises from 2.48 to 2.85.

First: F5Q
Second: F5R
The protein stability index of the first is higher: 2.78 for the first, 2.45 for the second.

First: F5S
Second: F5T
The protein stability index of the first is higher: 2.67 for the first, 2.24 for the second.

Compared with F5V, F5W is lower in protein stability index: 2.51 for the first, 2.5 for the second.

Going from F5Y to G6A, the protein stability index falls from 2.56 to 1.65.

Going from G6C to G6D, the protein stability index rises from 1.98 to 2.28.

First: G6E
Second: G6F
The protein stability index of the first is higher: 2.31 for the first, 1.97 for the second.
